Results from the supplement of paper PMC7125110.
± gives the standard error. For some assays here: Variants at the floor of the assay were thinned out.

B1: glmS ribozyme (parent)
chain: AUAAAAGCGCCAGAACUACAGAAAUGUAGUUGACGAGGAGGAGGUUUAUCGAAUUUUCGGCGGAUGCCUCCAAA

What was measured:
Conditions in all cases: with glucosamine-6-phosphate
glucosamine-6-phosphate [1] = variants of: B1; assay: kcat; higher = faster cleavage; RNA array
How it was run: (§1)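 Barcoded ribozyme variants, transcribed in situ by E. coli RNA polymerase on sequenced MiSeq chips, were followed via a hybridised Cy3 probe at 37 °C. Glucosamine-6-phosphate ranged from 40 μM to 10 mM in HEPES/KCl/Mg(OAc)2 buffer. kobs came from decay fits to per-tile medians, and kcat and KM from weighted Michaelis–Menten fits.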

glucosamine-6-phosphate [2] = variants of: B1; assay: self-cleavage kobs at 40 uM GlcN6P; higher = faster cleavage; RNA array
How it was run: as §1

glucosamine-6-phosphate [3] = variants of: B1; assay: self-cleavage kobs at 160 uM GlcN6P; higher = faster cleavage; RNA array
How it was run: as §1

glucosamine-6-phosphate [4] = variants of: B1; assay: self-cleavage kobs at 640 uM GlcN6P; higher = faster cleavage; RNA array
How it was run: as §1

glucosamine-6-phosphate [5] = variants of: B1; assay: self-cleavage kobs at 2500 uM GlcN6P; higher = faster cleavage; RNA array
How it was run: as §1

glucosamine-6-phosphate [6] = variants of: B1; assay: self-cleavage kobs at 10000 uM GlcN6P; higher = faster cleavage; RNA array
How it was run: as §1

glucosamine-6-phosphate [7] = variants of: B1; assay: KM; higher = weaker cofactor use; RNA array
How it was run: as §1

Variant | kcat (glucosamine-6-phosphate [1]) | self-cleavage kobs at 40 uM GlcN6P (glucosamine-6-phosphate [2]) | self-cleavage kobs at 160 uM GlcN6P (glucosamine-6-phosphate [3]) | self-cleavage kobs at 640 uM GlcN6P (glucosamine-6-phosphate [4]) | self-cleavage kobs at 2500 uM GlcN6P (glucosamine-6-phosphate [5]) | self-cleavage kobs at 10000 uM GlcN6P (glucosamine-6-phosphate [6]) | KM (glucosamine-6-phosphate [7])
AUAAAAGCGCCAGAAUUACAGAAAUGUAGUUGACGAGGAGGAGGUUUAUCGAGUUUUCGGCGGAUGCCUCCAAA | 0.0256 ± 0.012 s⁻¹ | 0.00111 ± 0.00015 s⁻¹ | 0.00153 ± 0.00061 s⁻¹ | 0.0112 ± 0.0028 s⁻¹ | 0.013 ± 0.0042 s⁻¹ | 0.0282 ± 0.0061 s⁻¹ | 
AUAAAAGCGCCAGAACUACAGAAAUGUAGUUUACGAGGAGGAGGUUUAUCGAGUUUUCGGCGGAUGCCUCCAAA | 0.00107 ± 0.00015 s⁻¹ |  | 5.42e-05 ± 9e-06 s⁻¹ | 0.000174 ± 1.8e-05 s⁻¹ | 0.000375 ± 5.5e-05 s⁻¹ | 0.000847 ± 7.5e-05 s⁻¹ | 3390 ± 750 µM
AUAAAAGCGCCAGAACUACAGAAAUGUAGUUGACGAGGAGGAGGUUUUUCGAAUUUUCGGCGGAUGCCGCCAAA | 5.22e-05 ± 2.1e-05 s⁻¹ |  |  |  | 7.45e-05 ± 1.7e-05 s⁻¹ |  | 
AUAAAAGCGCCAGAACUACAGAAAUGUAGUUGACGAGUAGGAGGUUUAACGAAUUUUCGGCGGAUGACUCCAAA | 1.26e-05 ± 4.6e-06 s⁻¹ |  |  |  |  |  | 
AUAAAAGCGCCAGGACUACAGAAAUGUAGUUGACGAUGAGGAGGUUUAUCGAAUUUUCGGCGGAUGCCUCCAAA | 2.35e-05 ± 1.3e-06 s⁻¹ | < 1e-05 s⁻¹ |  |  |  | 2.02e-05 ± 1e-05 s⁻¹ | 1680 ± 470 µM
AUAAAAGCGCCAGAACUACAGAAAUGUACUUGACGAGGAGGAGGUUUAUCGAAUCUUCGGCGGAUGCCUCCAAA | 0.00285 ± 0.001 s⁻¹ | 5.28e-05 ± 1.7e-05 s⁻¹ | 0.00011 ± 1.7e-05 s⁻¹ | 0.000561 ± 0.0001 s⁻¹ | 0.00116 ± 0.00023 s⁻¹ | 0.00205 ± 0.00062 s⁻¹ | 3510 ± 1600 µM
AUAAAAGCGCCAGAACUACAGAAAUGUAGUUGACGAGGAGGAGGUUUAUCGAAUUUUCGGCGGCUGCCUCCAAA | 0.000188 ± 1.2e-05 s⁻¹ |  | 1.42e-05 ± 3e-06 s⁻¹ | 5.05e-05 ± 1.6e-06 s⁻¹ | 0.000127 ± 3e-06 s⁻¹ | 0.000157 ± 2.8e-06 s⁻¹ | 1610 ± 260 µM
AUAAAAGCGCCAGAACUACAGAAAUGUAGGUAACGAGGAGGAGGUUUAGCGAAUUUUCGGCGGAUGCCUCCAAA | 6.41e-05 ± 1.8e-05 s⁻¹ |  |  |  | 6.89e-05 ± 2.1e-05 s⁻¹ | 5.26e-05 ± 1.5e-05 s⁻¹ | 
AUAAAAGCGCCAGUACUACAGAAAUGUAGUUGACGAGGACGAGGUUUAUCGAAUUUUCGGCGGAUGCCUCCAAA | 0.000633 ± 5.1e-05 s⁻¹ | 2.05e-05 ± 9e-06 s⁻¹ | 5.2e-05 ± 9.2e-06 s⁻¹ | 0.000142 ± 1.5e-05 s⁻¹ | 0.000391 ± 4.2e-05 s⁻¹ | 0.000522 ± 3.7e-05 s⁻¹ | 1980 ± 320 µM
AUAAAAGCGCCAGGUCUACAGAAAUGUAGUUGACGAGGAUGAGGUUUAUCGAAUUUUCGGCGGAUGCCUCCAAA | 0.00322 ± 0.00023 s⁻¹ | 0.00018 ± 3.4e-05 s⁻¹ |  | 0.00146 ± 0.00029 s⁻¹ | 0.00279 ± 0.0008 s⁻¹ | 0.00298 ± 0.00083 s⁻¹ | 690 ± 78 µM
AUAAAAGCGCCAGAACUACAGAAAUGUAGUUGAAGAGGAGGAGGUUUAUCUAAUUUUCGGCGGAUGUCUCCAAA | 0.000275 ± 1.8e-05 s⁻¹ |  |  | 4.9e-05 ± 2e-05 s⁻¹ | 0.00014 ± 3.7e-05 s⁻¹ | 0.000213 ± 4.5e-05 s⁻¹ | 2730 ± 390 µM
AUAAAAGCGCCAGAACUACAGAAAUGUAGGUGACGAGGAGGAUGUUUAUCGAAUUUUCGGCGGAUGCCUCCAAA | 1.16e-05 ± 2.3e-06 s⁻¹ |  | < 1e-05 s⁻¹ | < 1e-05 s⁻¹ |  |  | 
AUAAAGGCGCCAGAACUACAGAAAUGUAGUUGACGAGGAGGAGGUUUAUCGAAUUUUCGGCGGAUGACUCCAAA | 0.00012 ± 9e-06 s⁻¹ | < 1e-05 s⁻¹ |  |  |  | 9.19e-05 ± 1.6e-05 s⁻¹ | 3130 ± 670 µM
AUAAAAGCGCCAGAUCUACAGAAAUGUAGUUGACGAGAAGGAGGUUUAUCGAAUUUUCGGCGGAUGAUUCCAAA | 2.38e-05 ± 7.1e-06 s⁻¹ |  |  |  |  |  | 
AUAAAAGCGCCAGAAGUACAGAAAUGUAGUUGACGAGGAGGAGGUUUAUCGAAUUUUGGGCGGAUGCCUCCAAA | 6.23e-05 ± 1.2e-05 s⁻¹ | < 1e-05 s⁻¹ |  |  | 7.72e-05 ± 1.5e-05 s⁻¹ | 5.56e-05 ± 8.3e-06 s⁻¹ | 
AUAAAAGCGCCAGAACUACAGAAAUGUAGUUGACGAGGAGGAGGUGUAUCGAAUUUUCGGCGGAUUUCUCCAAA | 0.000249 ± 2.4e-05 s⁻¹ |  |  | 0.000128 ± 3e-05 s⁻¹ | 0.000172 ± 6.1e-05 s⁻¹ | 0.00023 ± 3.9e-05 s⁻¹ | 804 ± 230 µM
AUAAAAGCGCAAGAACUACAGAAAUGUAGUUGACGAGGAGGAGGUUUAUCGAAUCUUCGGCGGAUGCCUCCAAA | 0.000132 ± 2.4e-05 s⁻¹ |  |  | 3.19e-05 ± 1.5e-05 s⁻¹ | 0.000125 ± 4.2e-05 s⁻¹ | 0.000109 ± 2.1e-05 s⁻¹ | 
